From publication PMC7749160, “Mycobacterial HelD is a nucleic acids-clearing factor for RNA polymerase” (Nature Communications, 2020)

Tests used:
[1] = biological target: T1, β subunit of Mycobacterium smegmatis RNA polymerase (as in the recombinant core m2) (Mycobacterium smegmatis, UniProt P60281 1-1169); test: cryo-EM structure; HelD and RNAP core mixed at a molar ratio of 3:1, 4 °C, 15 min; complex isolated on Superose 6 Increase in 20 mM Tris-HCl pH 7.8, 150 mM NaCl, 10 mM MgCl2, 1 mM DTT; three states (I, II, III) from one sample; conditions: both partners purified
T1 construct: RNA polymerase subunit β, Mycobacterium smegmatis; In the cryo-EM sample it stood on one chain with β′ (β–β′ fusion of m2), within the core enzyme; also called RNAP β; source: E. coli BL21(DE3), purified as part of the RNAP core (β–β′ fusion)
T1 sequence: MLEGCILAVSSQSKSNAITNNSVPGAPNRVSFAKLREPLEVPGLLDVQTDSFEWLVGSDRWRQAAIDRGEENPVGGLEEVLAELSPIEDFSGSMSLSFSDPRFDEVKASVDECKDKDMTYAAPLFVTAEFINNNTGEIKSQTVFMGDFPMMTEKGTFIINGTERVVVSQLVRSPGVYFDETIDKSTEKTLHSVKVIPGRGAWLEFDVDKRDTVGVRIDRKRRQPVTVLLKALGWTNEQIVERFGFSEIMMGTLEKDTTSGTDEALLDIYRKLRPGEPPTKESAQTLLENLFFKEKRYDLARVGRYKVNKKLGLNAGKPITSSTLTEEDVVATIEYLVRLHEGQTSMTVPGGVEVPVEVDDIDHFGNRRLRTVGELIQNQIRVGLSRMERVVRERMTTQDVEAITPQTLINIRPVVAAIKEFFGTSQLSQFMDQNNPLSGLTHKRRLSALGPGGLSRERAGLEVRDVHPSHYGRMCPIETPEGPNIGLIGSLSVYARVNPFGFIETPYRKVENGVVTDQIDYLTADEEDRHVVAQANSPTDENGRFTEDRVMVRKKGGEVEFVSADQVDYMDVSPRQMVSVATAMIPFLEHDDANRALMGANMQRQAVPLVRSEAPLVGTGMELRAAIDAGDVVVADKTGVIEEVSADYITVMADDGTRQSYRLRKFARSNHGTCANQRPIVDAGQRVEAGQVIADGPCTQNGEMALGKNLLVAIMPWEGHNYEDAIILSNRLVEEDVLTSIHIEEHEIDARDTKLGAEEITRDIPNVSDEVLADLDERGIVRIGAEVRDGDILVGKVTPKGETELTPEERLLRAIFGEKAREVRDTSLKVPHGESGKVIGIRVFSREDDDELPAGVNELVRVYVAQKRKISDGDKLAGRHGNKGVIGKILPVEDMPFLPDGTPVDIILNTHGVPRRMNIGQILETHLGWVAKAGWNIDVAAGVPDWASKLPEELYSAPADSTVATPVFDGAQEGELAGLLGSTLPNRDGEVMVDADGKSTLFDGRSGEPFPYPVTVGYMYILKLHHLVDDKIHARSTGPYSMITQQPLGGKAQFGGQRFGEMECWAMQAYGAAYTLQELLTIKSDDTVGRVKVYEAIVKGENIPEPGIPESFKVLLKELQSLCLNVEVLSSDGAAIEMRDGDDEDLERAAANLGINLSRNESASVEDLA

[2] = biological target: T2, β′ subunit of Mycobacterium smegmatis RNA polymerase (as in the recombinant core m2) (Mycobacterium smegmatis, UniProt A0QS66 1-1317); test: as above; conditions: both partners purified
T2 construct: RNA polymerase subunit β′, Mycobacterium smegmatis; In the cryo-EM sample it stood on one chain with β (β–β′ fusion of m2), within the core enzyme; also called RNAP β′; source: E. coli BL21(DE3), purified as part of the RNAP core (β–β′ fusion)

B1: Mycobacterium smegmatis HelD (MSMEG_2174), recombinant (natural protein, UniProt A0QUE0 2-736, looked up)
chain: SGRDYEDELQSERDYVAGLYARLDAERAQSQRRYAAALREHGGTAVERDAEVRALAKDIARLNVADNGLCFGRLDTLDDARLYIGRLGIFDRDNDFEPLLLDWRAPMARPFYVATAANPENMRRRRQFHTLGRKVVDFTDEILGRPTGAEHDATNDAALLAAVNAPRGEGMRDIVATIQAEQDQVIRLDHTGVLVIEGGPGTGKTVVALHRVAYLLYTYRKQMERHGVLVVGPTPAFLDHIGRVLPSLGESDAVFMTPGDFVPGLHVTAEDTPEAAEVKGSLKILDVLKAAVADRQELPSEPIPIDLSDVTMRIDAETAKWARDEARKTGLPHNEARAEFVDVVTYVVTERAVARIGRGWLTRDDKHAWEKMRADVVGELEDHEQFNAALDALWPILTPEDVLAQLYTSHERLRAAGAPECLWRADGEAWTVSDVPLLDELVDLLGRNKAADEAAERERREEEAYAAGVLDLMVDREDLMDDEDHLLAQDLIDAEELADRFKEQDNRELSERAAADREWTYGHVVVDEAQELSEMDWRLLMRRCPRRSFTIVGDLAQRRSPAGARSWGAMLDSYVPGRWVYKSLSVNYRTPAEIMAVAAAVLAEFAPDATPPDSVRACGVAPWARQVTDDDIASAIAEFVSEEAGREGTSVVIGPPDVPGTVPPSETKGLEFDAVLVVEPERILADGPRGAAELYVALTRATQRLGVLYRDALPQALAGLAEGDAAATVEQRTSA
notes: HelD, gene MSMEG_2174 of Mycobacterium smegmatis strain ATCC 700084/mc2 155; the tag is followed by the second amino acid of MSMEG_2174; Codon-optimised synthetic gene in pET302/NT-His; also called Msm HelD; source: E. coli Lemo 21 (DE3), purified (HisTrap, TEV protease, Superdex 75)
Q: Does B1 bind [1]?
A: Result: binds

Q: Does B1 bind [2]?
A: Result: binds
